# According to the RNAGym collection of RNA variant scans (doi:10.7554/elife.80360):
# B1: HDV Ribozyme (parent)
# chain: GGCCGGCAUGGUCCCAGCCUCCUCGCUGGCGCCGGCUGGGCAACAUUCCGAGGGGACCGUCCCCUCGGUAAUGGCGAAUGGGACCCA
# Variants of: B1
# Test: self-cleavage, relative activity (ratio to wild type); higher = more cleavage; co-transcriptional
row,Variant,self-cleavage
1,GGCCGGCAUGGUCCCAGCCUCCUCGCUGGCGCCGGCUGGGCAACAUUCCGAGGGGUCCGUCCCCUCGGUAAUGGCGAAUGGGACCCU [A56U A87U],1.08
2,GGCGGGCAUGGUCCCAGCCUCCUCGCUGGCGCCGGCUGGGCAACAUUCCGAGGGGACCGUCCCCUCGGUAAUGGCGAAUGGGGCCCA [C4G A83G],0.192
3,GGCCGGCAUGGUCCCAGCCUCGUCGCUGGCGCCGGCUGGGCAACAUUCCGAGAGGACCGUCCCCUCGGUAAUGGCGAAUGGGACCCA [C22G G53A],0.0779
4,GGCCGGCAUGGUCCCAGCCUCCUCGCUGGCGCCGUCUGGGCAACAUUCCGAGGGGACCGUCCCCUCGGUAAUGGCGAAUGGGAUCCA [G35U C84U],0.343
5,GGCCGGCAUUGUCCCAUCCUCCUCGCUGGCGCCGGCUGGGCAACAUUCCGAGGGGACCGUCCCCUCGGUAAUGGCGAAUGGGACCCA [G10U G17U],0.487
6,GGCCGGCAUGGUCCCAGCCUCCUCGCUGGCGCCGGCUGGGCAUCAUUCCGAGGGGACCGUCCCCUCGGUAAUGGAGAAUGGGACCCA [A43U C75A],0.0755
7,GGCCGGCAUGGUCCCAGCCUCCUCGCUGGCGCCGGCUGGGCAACAUUCCGAGGAGACCGUCCCCUCGGUAAUGGCGAAUGGGACCCG [G54A A87G],0.877
8,GGCCGGCAUGGUCCCAGCCUCCACGCUGGCGCCGGCUGGGCAACAUUCCGAGGGGACCGUCCCCUCGGUAAUGGCGAAUGGGGCCCA [U23A A83G],0.767
9,GGCCGGCAUGGUCCCAGCCUCCUCGCUGGCGCCGGCUGGGUAACAUUCCGAGGUGACCGUCCCCUCGGUAAUGGCGAAUGGGACCCA [C41U G54U],0.931
10,GGCCGGCAUGGUCCCAGCCUCCUCGCUGACGCCGGCUGGGCAACAUUCCGAGGGGACCGUCCCCUCGGUAAUGGCCAAUGGGACCCA [G29A G76C],0.256
11,GGACGGCAUGGUCCCAGCCUCCUCGCUGGCGCCGGUUGGGCAACAUUCCGAGGGGACCGUCCCCUCGGUAAUGGCGAAUGGGACCCA [C3A C36U],0.0915
12,GGCCGGCAUGGUCCCAGCCUCCUCGCUGGCGCCGGCUGGGCAACAUUCAGAGGGGACCGUCCCCUCGGUAAUGGCGAAUGGGACUCA [C49A C85U],0.811
13,GGCCGGCAUGGUCCCAGCCUCCUCGCUGGCGCCGGCUGGCCAACAUUCCGAGGGGACCGUCCCCUCGUUAAUGGCGAAUGGGACCCA [G40C G68U],0.245
14,GGCCGGCAUGGUCCCAGCCUCCUCGCUGGGGCCGGCUGGGCAACAUUCCUAGGGGACCGUCCCCUCGGUAAUGGCGAAUGGGACCCA [C30G G50U],0.0978
15,GGCCGGCAUGGUCCCAGCCUCCUCGCUCGCGCCGGCUGGGCAACAUUCCGAGGGGACCGCCCCCUCGGUAAUGGCGAAUGGGACCCA [G28C U60C],0.0852
16,GGCCGGCAUGGUCCCAGCCUCCUCGCUGGCGCCGGCUGGGCAACAUUCCGAGGGGACCGUCCCCUCGGUUAUGGCGAAUGGGACCCU [A70U A87U],1.2
17,GGCCGGCAUGGUCCGAGCCUCCUCGCUGGCGCCGGCUGGGCAACAUUCCGAGUGGACCGUCCCCUCGGUAAUGGCGAAUGGGACCCA [C15G G53U],0.724
18,GGCCGGCCUGGUCCCAGCCUCCUCGCUGGCGCCGGCUGGGCAACAUUCCGAGGGGACCGUCCCCUCGGUAAUGGCGAAUAGGACCCA [A8C G80A],0.326
19,GGCCGGCAUGGUCCCAGCCUCCUCGCUGGCGCCGGCUGGGCAACAUUCCGGGGGGACCGUCCCCUCGGUAAUGGAGAAUGGGACCCA [A51G C75A],0.17
20,GGCCGGCAUGGUCCCAGCCUCCUCGCUGGCGCCGGCUGGGCAACCUUCCGAGGGGACCGUCCCCUCGCUAAUGGCGAAUGGGACCCA [A45C G68C],0.404
21,GGCCGGCACGGUCCCAGCCUGCUCGCUGGCGCCGGCUGGGCAACAUUCCGAGGGGACCGUCCCCUCGGUAAUGGCGAAUGGGACCCA [U9C C21G],0.277
22,GGCCGGCAUGGUCCCAGCCUCCUCGCUGGCGCCGGCUGGGCAACAUUUCGAGGGGACCGUCCCCUCGGUAAUGGCGAAUGGGAGCCA [C48U C84G],0.712

row,Variant,self-cleavage
1,GGCCGGCUUGGUCCCAGCCUCCUCGCUGGCGCCGGCUGGGCAACAUUCCGAGGGGACCGUCCCCUCGGUAACGGCGAAUGGGACCCA [A8U U72C],0.443
2,GGCCGCCAUGGUCCCAGCCUCCUCGCUGGCGCCGGCUGGGCAACAUUCCGAGGGGACCGUCCCCUCGGUAAUGGCGAAUCGGACCCA [G6C G80C],0.172
3,GGCCGGCAUGAUCCCAGCCUCCUCGCUGGCGCCGGCUGCGCAACAUUCCGAGGGGACCGUCCCCUCGGUAAUGGCGAAUGGGACCCA [G11A G39C],0
4,GGCCGGCAUGGUCCCAGCCUCCUCGCUCGCGCUGGCUGGGCAACAUUCCGAGGGGACCGUCCCCUCGGUAAUGGCGAAUGGGACCCA [G28C C33U],0.232
5,GGCCGGCAUGGUCCCAGCCUCCUCGCUGGCGCCGGCUCGGCAACAUUCCGAGGGGACCGUCCCCUCGGUAAUGGCGAAUGGGACGCA [G38C C85G],0.237
6,AGCCGGCAUGGUCCCAGCCUCCUCGCUGGCGCCGGCUGGGCAACAUUCCGAGGGGACCGUCCCCUCGGUAAUGGCGAAUGGGACGCA [G1A C85G],0.101
7,GGCAGGCAUGGUCCCAGCCUCCUCGCUGGCGCCGGCUGGGCAACAUUCCGAGGGGUCCGUCCCCUCGGUAAUGGCGAAUGGGACCCA [C4A A56U],0.321
8,GGCCGGCAUGGUCCCAGCCCCCUCGCUGGCGCCGGCUGGGAAACAUUCCGAGGGGACCGUCCCCUCGGUAAUGGCGAAUGGGACCCA [U20C C41A],0.156
9,GGCCAGCAUGGUCCCAGCCUCCUCGCUGGCGCCGGCUGGGCAACAUUCCGAGGGGACCGUCACCUCGGUAAUGGCGAAUGGGACCCA [G5A C62A],0
10,GGCCUGCAUGGUCCCAGCCUCCUCGCUGGCGCCGGCUGGGCAACAUUCCGAGGGGACCGUCCCCUCGGUUAUGGCGAAUGGGACCCA [G5U A70U],0.222
11,GGCCGGCAUGGUCCCGGCCUCCUCGCUGGCGCCGGCUGGGCAACAUUCCGAGGGGACCGUCCCCUCGGUAAAGGCGAAUGGGACCCA [A16G U72A],0.499
12,GGCCGGCAUGGUCCCAGCCUCCUCGCUGUCGCCGGCUGGGAAACAUUCCGAGGGGACCGUCCCCUCGGUAAUGGCGAAUGGGACCCA [G29U C41A],0.0755
13,GGCCGGCAUGGUCCCAGCCUCCUCGCUGUCGCCGGCUGGGCAACAUUCCGAGGGGACCGUCCCCCCGGUAAUGGCGAAUGGGACCCA [G29U U65C],0.173
14,GGCCGGCAUGGUCCCAGCUUCCUCGCUGGCGCCGGCUGGGCAACAUUCCGAGGGGACCGUCCCCUCGGUAAUGGCGACUGGGACCCA [C19U A78C],0.172
15,GGCCGGCAUGGUCCCAGCCUCCUCGCUGGCGCCGGCUGGGCAACAUUCCGAGGGGACCGUCCCCUCGGAAAUGGCGAAUGGGACGCA [U69A C85G],1.16
16,GGCCGGCAUGGUCCCAGCCUCCUCGCUGGCGCCGGCUGGGCACCAUUCCGAGGGGACCGUCCCCUCGGUGAUGGCGAAUGGGACCCA [A43C A70G],0.643
17,GGCCGGCCUGGUCCCAGCCUCCUCGCUGGCGCCCGCUGGGCAACAUUCCGAGGGGACCGUCCCCUCGGUAAUGGCGAAUGGGACCCA [A8C G34C],0.178
18,GGCCGGCAUGGUCCCAGCCUCCUCGCUGGCGCCGCCUGGGCAACAUUCCGAGGGGACCGUCCCCUCGGUAAUGGCGAAUGGGACUCA [G35C C85U],0.308
19,GGCCGGCAUGGUCCCAGCCUCCUCACUGGCGCCGGCUGGGCAACAUUCCGAGGGGACCGUCACCUCGGUAAUGGCGAAUGGGACCCA [G25A C62A],0.168
20,GGCCGGCAUGGUCCCAGCCUCCUCGCUGGCGCCGGCUGGGCGACAUUCCGAGGGGACCGUCCCCUCGGUAAUGGCGAAUGGGCCCCA [A42G A83C],0.119
21,GGCCGGCAUGGUCCCAGCCUCCUCGCUGGACCCGGCUGGGCAACAUUCCGAGGGGACCGUCCCCUCGGUAAUGGCGAAUGGGACCCA [C30A G31C],0.115
22,GGCCGGCAUGGUCCCAGCCUCCUCGCUGGCGCCGGCUGGGCAACAUUCCGAGGGGACCGUCUCCUCGGUAAUGGCGAAUGGGACCAA [C62U C86A],0.82

row,Variant,self-cleavage
1,GGCCGGCAUGGUCCCAGCCUCCUCGCUGGCGCCGGCUGGGCAACAUUCCGAGGGGACCGUCCCCUCUGUAAUGGCGAAAGGGACCCA [G67U U79A],0.601
2,GGCCGGCAUGGUCCCAGCCUCCUCGCUGCCGCCGGCUGGGCGACAUUCCGAGGGGACCGUCCCCUCGGUAAUGGCGAAUGGGACCCA [G29C A42G],0
3,GGCCGGCAUGGUCCCAGCCUGCUCGCUGGCGCCGGCUGGGCAACAUUCCGAGGGGACCGUCCCCUCGGUAAUGGCGAAUGAGACCCA [C21G G81A],0.0604
4,GGCCGGCAUCGUCCCAGCCUCCUCGCUGGCGCCGGCUGGGCAGCAUUCCGAGGGGACCGUCCCCUCGGUAAUGGCGAAUGGGACCCA [G10C A43G],0.317
5,GGCCGGCAUGGUCCCAGCCUCCCCGCUGGCGCCGGCUGGGCAACAUUCCAAGGGGACCGUCCCCUCGGUAAUGGCGAAUGGGACCCA [U23C G50A],0.95
6,GGCCGGCAUGGUCCCAGCCUCCUCGCUGGCUCCGGCUGGGCAACAUUCCGAGGGGACCGUCCCCUCGGUAAUGGCGAAGGGGACCCA [G31U U79G],0.147
7,GGCCGGCAUGGUCCCAGCCUCCUCGCUGGCGCCGGCUGGGUAACAUUCCGAGGGGACCGUCCCCUCAGUAAUGGCGAAUGGGACCCA [C41U G67A],0.439
8,GGCCGGCAUGGUCCCAGCCUCCUCGCUGGCGCCGGCUGGGCAACAUUCCGAGGGGACCGUCCCCUCUCUAAUGGCGAAUGGGACCCA [G67U G68C],0.962
9,GGCCGGCAUGCUCCCAGCCUCCUCGCUGGCGCCGGCUGGGCAACAUUCCGAGGGGACCGUCCCCUCGGUAAUGGCGAAGGGGACCCA [G11C U79G],0.0875
10,GGCCGGCAUGGUCCCAGCCUCCUCGCUGGCGCCGGCUGGGCAACAUUCCGAGGGGACCGUGCCCUCGGAAAUGGCGAAUGGGACCCA [C61G U69A],0.789
11,GGCCGGCAUGGUCCCAGCCUCCCCGCUGUCGCCGGCUGGGCAACAUUCCGAGGGGACCGUCCCCUCGGUAAUGGCGAAUGGGACCCA [U23C G29U],0.142
12,GGCCGGCAUGGUCCCAGCCUCCUCGCUGGCGCCAGCUGGGCAACAUUCCGAGGGGACCGUCCCCUCGGUAAUGGCGAAUGGGACCUA [G34A C86U],0.176
13,GGCCGGCAUGGUCCCAGCCUCCUCGCUGGAGCCGGCUGGGCAACGUUCCGAGGGGACCGUCCCCUCGGUAAUGGCGAAUGGGACCCA [C30A A45G],0.391
14,GGCCGGCAUGGUCCCAGCCUCCUCGCUGGCGCCGGCUGGGCAAAAUUCCGAGGGGCCCGUCCCCUCGGUAAUGGCGAAUGGGACCCA [C44A A56C],0.853
15,GGCCGGCAUGGUCCCAGCCUCCUCGCUGGCGCCGGCUGGGCAACAUUCCGAGGGGACCGUCCCCUCGGUAAAGGCCAAUGGGACCCA [U72A G76C],0.65
16,GGCCGGCAUGGUCCCAGCCUCCUCGCUGGCACCGGCUGGGCACCAUUCCGAGGGGACCGUCCCCUCGGUAAUGGCGAAUGGGACCCA [G31A A43C],0.106
17,GGCCGGCAUGGUCCCAGCCUACCCGCUGGCGCCGGCUGGGCAACAUUCCGAGGGGACCGUCCCCUCGGUAAUGGCGAAUGGGACCCA [C21A U23C],0.0755
18,GGCCGGCAUGGUCCCAGCCUCCUCGCUGGCGACGGCUGCGCAACAUUCCGAGGGGACCGUCCCCUCGGUAAUGGCGAAUGGGACCCA [C32A G39C],0.166
19,GGCCGGCAUGGUCCCAGCCUCCUCGCUGGCGCCGGCUGGGCAACAUUCCGAGGGGACCGUCCACUCGGUAGUGGCGAAUGGGACCCA [C63A A71G],0.504
20,GGCCGGCAGGGUCCCAGCCUCCCCGCUGGCGCCGGCUGGGCAACAUUCCGAGGGGACCGUCCCCUCGGUAAUGGCGAAUGGGACCCA [U9G U23C],0.923
